Ends that are not written are not given here. Nct = N-((2S,3R)-1,3-dihydroxybutan-2-yl)-(4a,10a-dihydro-10,11-diazabenzo[b]fluoren-10-yl)acetamide monomer; Qut = N-(1,3-dihydroxybutan-2-yl)-10H-indolo[3,2-d]quinoline-11-carboxamide monomer; Pht = N-((2S,3R)-1,3-dihydroxybutan-2-yl)-2-phenylquinoline-4-carboxamide monomer; Act = N-(1,3-dihydroxybutan-2-yl)acridine-9-carboxamide monomer; code p = not defined here; Qgt = not defined here
Assays:
[1] = Fluorescence properties of the new compounds (excitation and emission wavelengths); type: physicochemical; settings: free compound
[2] = tested on: duplex with a contiguous CG sequence (5′- CCCGGG-T4-CCCGGG-3′); assay: Competitive dialysis; type: binding; settings: 1 μM ligand, 24 hours, room temperature
Text: (§1) Compounds that bind nucleic acids may show preference for certain sequences. This preference can be used for the detection of specific nucleic acid sequences. One of the methods used to analyse the sequence specificity of DNA-binding compounds is the competition dialysis (c.f. Ren, J. et al., “Sequence and structural selectivity of nucleic acid binding ligands”, Biochemistry, 1999, vol. 38, pp […]). In this method different nucleic acid structures are dialyzed against a common compound solution. […] The amount of compound present in each DNA sequence is measured by fluorescence.
(§2) We analysed the sequence specificity of the following polymers of the invention: Aca-p-Aca, QgpQgp(npa), Act-(p-Act)5, Act-p-Qut-p-Agt, Act-p-Qut-p-Act, Act-p-Qut-p-Nct, Qut-p-Qut-p-Qut, Act-p-Qut-p-Qut, and Act-p-Act-p-Act for DNA sequences: • duplex with an alternating CG sequence (5′-CGCGCG-T4-CGCGCG-3′); • duplex with a contiguous CG sequence (5′- CCCGGG-T4-CCCGGG-3′); • duplex with an alternating AT sequence (5′-[…]-T4-[…]); • duplex with a contiguous AT sequence (5′-[…]-T4-[…]); • a parallel triplex (5′-T20-3′-3′-T20-5′+A20); and • a G-quadruplex (thrombin-binding aptamer: 5′-[…]-3′ (SEQ ID NO 1); (c.f. Bock, L. C. et al., “Selection of single-stranded DNA molecules that bind and inhibit human thrombin”, Nature, 1992, vol. 355, pp 564-566).
(§3) Said DNA sequences have been used in order to determine: 1) the affinity of each one of the polymers for a specific tandem of nucleotides (CG, AT, GT); and 2) if the affinity for a specific tandem of nucleotides is affected by its distribution into the sequence (i.e., if the tandem is alternated or contiguous in the sequence).
(§4) The competition dialysis assay was performed placing into a beaker 200 ml of dialysate solution containing 1 μM of ligand in 2 mM sodium phosphate, 2 mM EDTA and 0.185 M NaCl pH 7.0. A volume of 0.1 ml (at 1 mg/ml) of each DNA samples was pipeted into a separate 0.1 ml dialysis unit (Mini Slide-A-lyzer 3.5K, Pierce). The dialysis units were placed in the beaker containing the dialysate solution using a floating device. The contents were allowed to equilibrate with continuous stirring for 24 hours at room temperature. At the end of the equilibration period, DNA samples were carefully removed to eppendorf tubes and were taken to a final concentration of 1% (w/v) sodium dodecyl sulfate (SDS). The concentration of polymer within each dialysis unit was then determined by fluorescence spectroscopy. The free polymer concentration was determined using an aliquot of the dialysate solution as well as with the solution coming from a blank (without DNA) dialysis unit.
(§5) The concentration of the polymer (which is determined by fluorescence spectroscopy) indicates its specificity for a specific sequence: the more higher is the concentration, more specific is for said sequence.

AT rich sequences = assay: Competitive dialysis; type: binding; settings: 1 μM ligand, 24 hours, room temperature
Text: as §1, §2, §3, §4, §5

[3] = tested on: parallel triplex (5′-T20-3′-3′-T20-5′+A20); assay: Competitive dialysis; type: binding; settings: 1 μM ligand, 24 hours, room temperature
Text: as §1, §2, §3, §4, §5

[4] = Fluorescent properties of duplexes carrying fluorophores at the 3′-end; type: physicochemical; settings: oligonucleotide duplex carrying fluorophore at the 3′-end
Experimental: Solid supports carrying oligomers with L-threoninol and 3-aminopropan-1,2-diol backbones were introduced on a DNA synthesizer and oligonucleotides were assembled using standard protocols. After the assembly of the desired DNA sequence, supports were treated with concentrated ammonia at 55° C. for a minimum of 6 hrs yielding oligonucleotides carrying oligomers of fluorophores at the 3′-end.
Two oligonucleotide sequences were synthetized (sequence 1: 5′-[…]-3′ sequence 2: 5′-[…]-3′) carrying different fluorophores at the 3′-end. Solid supports containing dimer and trimer fluorophores (prepared in examples 28-31) and standard protocols for oligonucleotide synthesis were used in order to obtain these modified oligonucleotides (Table 2). Ammonia deprotection was performed at 55° C. for 6 hours. The resulting solutions were concentrated to dryness. Then, the residue was dissolved in water and desalted through a NAP-10 column. Fractions containing oligonucleotides were analysed by HPLC and characterized by UV and MS spectrometry.
Next, the fluorescent properties of duplexes carrying fluorophores at the 3′-end was determined and the results are shown in Table 3: […]

duplex structure of DNA = assay: Melting experiments (DNA-duplex stabilization); type: physicochemical; settings: 1 M NaCl, 10 mM sodium phosphate buffer of pH=7; for Tm(° C.): 260 nm, 1° C./min; for ΔTm (° C.): versus unmodified oligonucleotide
Experimental: Appropriate oligonucleotides were dissolved in a solution containing 1 M NaCl, 10 mM sodium phosphate buffer of pH=7. UV Absorption spectra and melting experiments (absorbance vs temperature) were recorded in 1-cm path length cell by using a spectrophotometer, with a temperature controller and a programmed temperature increase rate of 1° C./min. Melting curves were recorded at 260 nm, and melting temperatures were measured at the maximum of the first derivatives of the melting curves.

| Compound | Fluorescence Excitation (nm) [1] [nm] | Fluorescence emission (nm) [1] [nm] | affinity (concentration of polymer retained, by fluorescence) [2] | affinity (concentration of polymer retained, by fluorescence) (AT rich sequences) | affinity (concentration of polymer retained, by fluorescence) [3] | Emission (nm) [4] [nm] | Excitation (nm) [4] [nm] | Tm(° C.) (duplex structure of DNA) [°C] | ΔTm (° C.) (duplex structure of DNA) |
| --- | --- | --- | --- | --- | --- | --- | --- | --- | --- |
| CC(O)C(COP(=O)(O)OC(C)C(COP(=O)(O)OC(C)C(CO)NC(=O)c1c2ccccc2nc2ccccc12)NC(=O)c1c2ccccc2nc2c1[nH]c1ccccc12)NC(=O)c1c2ccccc2nc2c1[nH]c1ccccc12 (stereo not shown) [Example 29, O-{2-N-(Acridine-9-carbamoyl)-(1-hydroxybut-3-yl)} phosphate (3-1) O-{2-N-(10H-indolo[3,2-d]quinoline-11-carbamoyl)-3-oxybut-1-yl} phosphate (3-1) O-(2-N-{10H-indolo[3,2-d]quinoline-11-carbamoyl}-3-hydroxybut-1-yl)] | 353 | 440 | higher affinity | higher affinity | higher affinity | – | – | – | – |
| CC(O)C(COP(=O)(O)OC(C)C(COP(=O)(O)OC(C)C(COP(=O)(O)OC(C)C(COP(=O)(O)OC(C)C(COP(=O)(O)OC(C)C(CO)NC(=O)c1c2ccccc2nc2ccccc12)NC(=O)c1c2ccccc2nc2ccccc12)NC(=O)c1c2ccccc2nc2ccccc12)NC(=O)c1c2ccccc2nc2ccccc12)NC(=O)c1c2ccccc2nc2ccccc12)NC(=O)c1c2ccccc2nc2ccccc12 (stereo not shown) [Example 30, O-{2-N-(Acridine-9-carbamoyl)-(1-hydroxybut-3-yl)} phosphate (3-1) O-{2-N-(acridine-9-carbamoyl)-(1-hydroxybut-3-yl)} phosphate (3-1) O-{2-N-(acridine-9-carbamoyl)-(1-hydroxybut-3-yl)} phosphate (3-1) O-{2-N-(acridine-9-carbamoyl)-(1-hydroxybut-3-yl)} phosphate (3-1) O-{2-N-(acridine-9-carbamoyl)-(1-hydroxybut-3-yl)} phosphate (3-1) O-{2-N-(acridine-9-carbamoyl)-3-hydroxybut-1-yl}] | 350 | 438 | – | – | high affinity | – | – | – | – |
| CC(O)C(COP(=O)(O)OC(C)C(COP(=O)(O)OC(C)C(CO)NC(=O)c1c2ccccc2nc2c1[nH]c1ccccc12)NC(=O)c1c2ccccc2nc2c1[nH]c1ccccc12)NC(=O)c1c2ccccc2nc2c1[nH]c1ccccc12 (stereo not shown) [Example 42, O-{2-N-(10H-indolo[3,2-d]quinoline-11-carbamoyl)-3-oxybut-1-yl} phosphate (3-1) O-{2-N-(10H-indolo[3,2-d]quinoline-11-carbamoyl)-3-oxybut-1-yl} phosphate (3-1) O-(2-N-{10H-indolo[3,2-d]quinoline-11-carbamoyl}-3-hydroxybut-1-yl)] | 359 | 499 | higher affinity | higher affinity | higher affinity | – | – | – | – |
| TTCCGGAA-p-Act-p-Pht: oligonucleotide 5′-TTCCGGAA-3′ carrying dimer Act-p-Pht at the 3′-end (DNA TTCCGGAA-{code p-Act-code p-Pht}; not fully specified; cysteine pairing not given here; reading uncertain; also: DNA oligonucleotide with 3'-Act-p-Pht dimer) | – | – | – | – | – | 440 | 336 | 43 | +8 °C |
| TTCCGGAA-p-Act-p-Qut-p-Qut: oligonucleotide 5′-TTCCGGAA-3′ carrying trimer Act-p-Qut-p-Qut at the 3′-end (DNA TTCCGGAA-{code p-Act-code p-Qut-code p-Qut}; not fully specified; cysteine pairing not given here; reading uncertain; also: DNA oligonucleotide with 3'-Act-p-Qut-p-Qut trimer) | – | – | – | – | – | 436 | 352 | 44 | +9 °C |
| TTCCGGAA-p-Act-p-Qut: oligonucleotide 5′-TTCCGGAA-3′ carrying dimer Act-p-Qut at the 3′-end (DNA TTCCGGAA-{code p-Act-code p-Qut}; not fully specified; cysteine pairing not given here; reading uncertain; also: DNA oligonucleotide with 3'-Act-p-Qut dimer) | – | – | – | – | – | 485 | 351 | 44 | +9 °C |
| TTCCGGAA-p-Nct: oligonucleotide 5′-TTCCGGAA-3′ carrying fluorophore Nct at the 3′-end (DNA TTCCGGAA-{code p-Nct}; not fully specified; cysteine pairing not given here; reading uncertain; also: DNA oligonucleotide with 3'-phosphate-linked Nct) | – | – | – | – | – | 442 | 267 | 46 | +11 °C |
| TTCCGGAA-p-Pht: oligonucleotide 5′-TTCCGGAA-3′ carrying fluorophore Pht at the 3′-end (DNA TTCCGGAA-{code p-Pht}; not fully specified; cysteine pairing not given here; reading uncertain; also: DNA oligonucleotide with 3'-phosphate-linked Pht) | – | – | – | – | – | – | – | 41 | +6 °C |
| TTCCGGAA-p-Qgt: oligonucleotide 5′-TTCCGGAA-3′ carrying fluorophore Qgt at the 3′-end (DNA TTCCGGAA-{code p-Qgt}; not fully specified; cysteine pairing not given here; reading uncertain; also: DNA oligonucleotide with 3'-phosphate-linked Qgt) | – | – | – | – | – | 491 | 350 | 50 | +15 °C |
| TTCCGGAA-p-Qut-p-Qut: oligonucleotide 5′-TTCCGGAA-3′ carrying dimer Qut-p-Qut at the 3′-end (DNA TTCCGGAA-{code p-Qut-code p-Qut}; not fully specified; cysteine pairing not given here; reading uncertain; also: DNA oligonucleotide with 3'-Qut-p-Qut dimer) | – | – | – | – | – | 490 | 349 | 48 | +13 °C |
| TTCCGGAA-p-Qut: oligonucleotide 5′-TTCCGGAA-3′ carrying fluorophore Qut at the 3′-end (DNA TTCCGGAA-{code p-Qut}; not fully specified; cysteine pairing not given here; reading uncertain; also: DNA oligonucleotide with 3'-phosphate-linked Qut) | – | – | – | – | – | 492 | 349 | 44 | +9 °C |
